Measurements reported in PMC12391449, “Hepatitis C virus NS3 helicase contributes to (−) strand RNA synthesis”.

Molecular target: NS3h wt (NS3 helicase domain) (Hepatitis C virus JFH1 (genotype 2a), UniProt Q99IB8 1218-1662)
Assay: fluorescence polarization; probe; Kd of 5 nM only assumed for fit; FP competition: 15 nM NS3h, 15 nM Cy5-dT15, 25 mM MOPS pH 7.5, 1.25 mM MgCl2, 0.0025 mg/ml BSA, 0.005% Tween20, 0.025 mM DTT, 0-2000 nM competitor, 20 min, 23 C
Conditions: protein: recombinant; tags: C-terminal His tag; label: 5' Cy5

Sequence of NS3h wt (NS3 helicase domain) (Q99IB8 1218-1662): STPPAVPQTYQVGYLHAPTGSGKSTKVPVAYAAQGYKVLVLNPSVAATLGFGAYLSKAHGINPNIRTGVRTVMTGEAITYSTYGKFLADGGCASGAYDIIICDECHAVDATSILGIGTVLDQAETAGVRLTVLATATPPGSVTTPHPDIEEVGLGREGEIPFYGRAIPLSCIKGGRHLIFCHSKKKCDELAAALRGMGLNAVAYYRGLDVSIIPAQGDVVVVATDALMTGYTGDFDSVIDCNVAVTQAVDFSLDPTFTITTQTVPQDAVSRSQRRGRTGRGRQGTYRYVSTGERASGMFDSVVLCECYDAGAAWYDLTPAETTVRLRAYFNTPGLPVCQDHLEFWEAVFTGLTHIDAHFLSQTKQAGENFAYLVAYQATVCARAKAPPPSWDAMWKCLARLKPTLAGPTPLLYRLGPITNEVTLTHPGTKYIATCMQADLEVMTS

B1: Cy5-dT15 (ssDNA)
DNA: TTTTTTTTTTTTTTT
binding result: binds
